The text below walks through data of patent US20230203153A1 (CHILDREN S MEDICAL CENTER, published 2023).

The target of test [1] is T1, cyclic (biotinylated) ABCB5 peptide (human, disulfide 1-18).
T1 construct: immobilised at 200 nM on streptavidin-precoated plates; also called cyclic ABCB5 peptide
T1 peptide: Biotin-CRFGAYLIQAGRMTPEGC
The test is described as follows: cyclic biotinylated peptide ELISA (200 nM peptide on streptavidin plates), BSA control subtracted (FIG. 4B).

Test [2] addresses T1, cyclic (biotinylated) ABCB5 peptide. Briefly: cyclic biotinylated peptide ELISA (200 nM peptide on streptavidin plates), no Ab control subtracted (FIG. 4A).
Test [3] has as its target T2, 'scrambled' (neg. ctrl.) peptide (also: conjugated to BSA).
T2 construct: also called scrambled|BSA peptide
T2 peptide: GFEALGTAIRYPMGQR
Briefly: linear peptide ELISA, BSA-conjugated peptides (20 µM), OD 450 nm (mAb-Iso). An excerpt: (§1) Specificity for ABCB5 of Ab100. ELISAs run against ABCB5 peptide used to make the antibody was examined. The linear peptide ELISA binding study was a comparative assessment of quantitative binding to ABCB5 linear epitope peptide (3rd extracellular loop) and corresponding peptide segments of homologous (ABCB 1, 4, 11) and orthologous (murine ABCB5) proteins—to assess specificity and/or cross-reactivity (see FIG. 2). […] A primate sequence was not tested as the epitope sequence is identical to the human epitope. A scrambled peptide was used as a negative control. All of the tested peptides are all linear peptides, synthetically created to resemble extracellular loop. The X-axis is the Ab concentration. The Y-axis is the optical density of ELISA (signal representing binding). A non-specific signal with isotype antibody has been subtracted, which is why a non-specific isotype antibody is not shown.

For test [4], the target named is T3, ABCB4 peptide segment corresponding to the ABCB5 linear epitope peptide (human, UniProt P21439 957-972, limits assumed).
T3 construct: domain: corresponding peptide segment (3rd extracellular loop); also called homologous control peptide
T3 peptide (looked up): RFGAYLIVNGHMRFRD
The test is described as above.
Excerpt: as §1

Test [5] addresses T4, ABCB5 linear epitope peptide (3rd extracellular loop) (human).
T4 construct: Synthetic linear peptide, used at 20 uM in the ELISA; 104; also called ABCB5 peptide; linear peptide
T4 peptide: RFGAYLIQAGRMTPEG
Described as above.
Excerpt: as §1

The target of test [6] is T5, cyclic 'scrambled' (neg. ctrl.) peptide (disulfide 1-18).
T5 construct: also called cycl. 'scrambled'
T5 peptide: Biotin-CGFEALGTAIRYPMGQRC
The test is described as follows: cyclic biotinylated peptide ELISA (200 nM peptides), OD 450 nm (mAb-average Iso).

In test [7] the target is T1, cyclic (biotinylated) ABCB5 peptide. Briefly: cyclic biotinylated peptide ELISA (200 nM peptides), broad range of mAb concentrations, curve fit.
The target is the same in test [8]. The test is described as follows: cyclic biotinylated peptide ELISA (200 nM peptides), broad range of mAb concentrations, OD 450 nm (mAb-average Iso).
Test [9] has the same target. The test is described as follows: cyclic biotinylated peptide ELISA (200 nM peptides), curve fit, OD 450 nm.
The target in test [10] is T2, 'scrambled' (neg. ctrl.) peptide. The test is described as follows: linear peptide ELISA, BSA-conjugated peptides (20 µM), OD 450 nm (mAb-Iso (InVivoPlus+)).
Test [11] deals with T4, ABCB5 linear epitope peptide (3rd …). Described as above.
Test [12] deals with T6, ABCB11 peptide segment corresponding to the ABCB5 linear epitope peptide (human, UniProt O95342 1001-1016, limits assumed).
T6 construct: domain: corresponding peptide segment (3rd extracellular loop); also called homologous control peptide
T6 peptide (looked up): RYGGYLISNEGLHFSY
The test is described as above.

The target of test [13] is T7, ABCB1 peptide segment corresponding to the ABCB5 linear epitope peptide (human, UniProt P08183 958-973, limits assumed).
T7 construct: domain: corresponding peptide segment (3rd extracellular loop); also called homologous control peptide
T7 peptide (looked up): RFGAYLVAHKLMSFED
Described as above.

Test [14] addresses T1, cyclic (biotinylated) ABCB5 peptide. Briefly: cyclic biotinylated peptide ELISA (200 nM peptides), broad range of mAb concentrations, curve fit, OD 450 nm.
Test [15] has the same target. Briefly: cyclic biotinylated peptide ELISA (200 nM peptides), curve fit.
For test [16], the target named is T2, 'scrambled' (neg. ctrl.) peptide. The test is described as follows: linear peptide ELISA, BSA-conjugated peptides (20 µM), OD 450 nm (mAb-Iso (InVivoPlus+)).
Test [17] deals with T4, ABCB5 linear epitope peptide (3rd …). Described as above.
The target of test [18] is T6, ABCB11 peptide segment corresponding to …. The test is described as above.
Test [19] addresses T7, ABCB1 peptide segment corresponding to …. The test is described as above.

Changes are numbered by the printed parent chain. Values joined by “and” are separate entries in the source; they are usually repeats but may differ in a detail not shown here. Equal values may be shown once. Read-outs that look alike come from different tables or passages of the source. Bridge positions count the residues as written; N and C are the ends. Ends that are not written are not given here. * marks the point of attachment. Biotin = O=C1N[C@H]2[C@H](CS[C@H]2CCCCC(=O)*)N1

B1: ABCB5-Ab100 (antibody, human IgG1, kappa, V domains shown)
VH: EVQLVESGGGLVQPGGSLRLSCAASGFTFSSYSMNWVRQAPGKGLEWVSYISSSSSTIYYADSVKGRFTISRDNAKNSLYLQMNSLRDEDTAVYYCASNYQYGDYGGYWGRGTLVTVSS
VL: AIQLTQSPSSLTGSVGDRVTITCQASHDISNFLNWYQQKPGQAPKLLIYDAYNLQTGVPSRFSGTGSGTHFTLTINSLQPEDVGTYFCQQYDYFLSITFGQGTRLEIKR
Turning to B1, the Kd in [1] was 6.16 µg/mL and 41.3 nM; in [2], 4.93 µg/mL and 33.1 nM. The figures for the binding result in [3], in [4] and in test [5] were “no binding (tested: 50 µg/mL)”, “no binding (tested: 50 µg/mL)” and “binds”, respectively.

B2: ABCB5-Ab101 (antibody, human IgG1, kappa, V domains shown)
VH: QVQLVQSGAEVKKPGASVKVSCKASGYTFTSYYMHWVRQAPGQGLEWMGIINPSGGSTSYAQKFQGRVTMTRDTSTSTVYMELSSLRSEDTAVYYCARDQAVTGTAYYYYYGMDVWGQGTTVTVSS
VL: EIVLTQSPGTLSLSPGERATLSCRASQSVNSNYLAWYQQKPGQAPRLLIYGTSSRATGIPDSFSGSGSGTDFTLTISRLEPEDFAVYYCQQFGSSPLTFGGGTKVEIKR
notes: Fully human monoclonal IgG1 kappa
For the molecule B2, the binding result in [6] is listed as “no binding (tested: 1 µg/ml)”; in [10], “no binding (tested: 50 µg/ml)”; in test [11], “binds”; in test [12], “no binding (tested: 50 µg/ml)”; in [13], “no binding (tested: 50 µg/ml)”. The Kd in test [7] is 0.039 µg/mL and 0.261 nM; in test [15], 0.0283 µg/mL and 0.19 nM. Also, the “EC50 (read off the curve)” value in [8] was around 0.04 µg/mL. The Bmax in [9] was determined as 3.33; in test [14], 3.83.

B3: ABCB5-Ab43 (antibody, V domains shown)
VH: B2 VH with A40S
VL: EIVLTQSPGTLSLSPGERATLSCRASQSVNSKYLAWYQQKPGQAPRLLIYGTSSRATGIPDSFSGSGSGTDFTLTISRLEPEDFAVYYCQQFGSSPLTFGGGTKVEIK
Regarding B3, the binding result in test [6] is recorded as “no binding (tested: 1 µg/ml)”; in test [16], “no binding (tested: 50 µg/ml)”; in test [17], “binds”; in test [18] it was “no binding (tested: 50 µg/ml)”; in test [19], “no binding (tested: 50 µg/ml)”. In addition, the Kd is 0.0345 µg/mL and 0.231 nM in test [7]; 0.0204 µg/mL and 0.137 nM in test [15]. In addition, the “EC50 (read off the curve)” value in test [8] is around 0.04 µg/mL. The Bmax in test [9] worked out at 3.24; in test [14], 3.77.

B4: ABCB5-Ab44 (antibody, V domains shown)
VH: B2 VH with Q65K
VL: B3 VL with K32N
notes: also called A44; F01
For the molecule B4, the binding result in test [6] is given as “no binding (tested: 1 µg/ml)”; in test [16], “no binding (tested: 50 µg/ml)”; in [17] it was “binds”; in test [18], “no binding (tested: 50 µg/ml)”; in test [19] it was “no binding (tested: 50 µg/ml)”. The Kd in [7] is 0.0335 µg/mL and 0.225 nM; in [15], 0.00917 µg/mL and 0.0615 nM. The half-maximal effective concentration (EC50 (read off the curve)) in test [8] was around 0.04 µg/mL. In addition, the Bmax in test [9] came to 3.23; in test [14] it was 3.99.

B5: ABCB5-Ab45 (antibody, V domains shown)
VH: B2 VH with S31N, L45P, Q100L
VL: B3 VL with I2F, K32N
B5: the binding result is listed as “no binding (tested: 1 µg/ml)” in test [6]; “no binding (tested: 50 µg/ml)” in test [16]; “binds” in [17]; “no binding (tested: 50 µg/ml)” in [18]; “no binding (tested: 50 µg/ml)” in test [19]. The Kd in test [7] was 0.0205 µg/mL and 0.138 nM; in test [15], 0.00456 µg/mL and 0.0306 nM. For the same molecule, the “EC50 (read off the curve)” value in test [8] was around 0.02 µg/mL. Also, the Bmax was 3.2 in [9] and 3.71 in test [14].

B6: ABCB5-Ab42 (antibody, V domains shown)
VH: B2 VH with A24T, A40S
VL: B3 VL with Q27L, K32N
notes: detection was with an anti-human secondary antibody
Consider B6, for which the binding result in [6] is “no binding (tested: 1 µg/ml)”; in [16] it was “no binding (tested: 50 µg/ml)”; in [17], “binds”; in test [18], “no binding (tested: 50 µg/ml)”; in [19], “no binding (tested: 50 µg/ml)”. Moreover, the dissociation constant Kd in test [7] is 0.0471 µg/mL and 0.316 nM; in test [15] it was 0.0222 µg/mL and 0.149 nM. Moreover, the “EC50 (read off the curve)” value in [8] is around 0.04 µg/mL. In addition, the Bmax came to 3.17 in test [9] and 4.09 in test [14].
